Source: US20110223155A1
Each block holds one substance with its values, some of them ahead of it.

Assays:
[1] = target: Notch3-LD/Fc fusion protein (Notch3 LIN12/dimerization domain fused to human gamma 1 Fc) (human) (UniProt Q9UM47); experiment: ELISA on coated Notch3-LD/Fc
[2] = target: human Notch1-LD/Fc (LIN/dimerization domain fused to Fc region at the carboxyl terminus) (human) (UniProt P46531); experiment: ELISA on coated Notch1-LD/Fc
[3] = target: full-length human Notch3 receptor expressed on cells (human) (UniProt Q9UM47); experiment: cell-based or functional assay

Chain of UniProt P46531 (P46531 1440-1735 limits assumed, form in doubt): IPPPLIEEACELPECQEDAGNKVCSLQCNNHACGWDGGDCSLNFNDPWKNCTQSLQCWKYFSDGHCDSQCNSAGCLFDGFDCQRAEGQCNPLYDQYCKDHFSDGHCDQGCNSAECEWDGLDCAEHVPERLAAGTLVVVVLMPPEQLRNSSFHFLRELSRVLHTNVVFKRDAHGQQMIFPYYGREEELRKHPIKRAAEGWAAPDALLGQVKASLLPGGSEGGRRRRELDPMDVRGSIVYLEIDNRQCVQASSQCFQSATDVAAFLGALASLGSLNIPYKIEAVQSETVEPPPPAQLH

ELISA OD reading (mean) [1]: 0.064 OD 450 nm
ELISA OD reading (mean) [2]: 0.066 OD 450 nm
Substance: Control IgG1 (irrelevant IgG1 monoclonal antibody)

luciferase activity (CBF1-Luc reporter) of NC85 cells cocultured with Jagged1/293T, against coculture with PCDNA 3.1/293T [3]: 2 to 4 fold
Substance: human Jagged1 expressed on 293T cells (Jagged1/293T) (from UniProt P78504 34-1218) (ligand)

luciferase activity (CBF1-Luc reporter) of NC85 cells cocultured with Jagged2/293F, against coculture with PCDNA 3.1/293T [3]: 2 to 4 fold
Substance: human Jagged2 expressed on 293 cells (Jagged2/293F) (from UniProt Q9Y219 24-1238) (ligand)
